This is an account of results in publication PMC3696110, “Hsp70 Oligomerization Is Mediated by an Interaction between the Interdomain Linker and the Substrate-Binding Domain” (PLoS ONE, 2013).

For series [1] the following is noted: previously reported; ref [S3]; cited from earlier work. On the procedure:
Supplementary file pone.0067961.s005.tif: Figure S4 Concentration dependency of the analytical SEC chromatograms of the 'C-term' variant. The protein concentrations used were 1µM (black line), 2µM (orange line), 5 µM (pink line), 10 µM (cyan line), 70 µM (red line) and 125 µM (green line). Essentially the same elution profile was found for all the protein concentrations used. At the top the chromatogram the previously reported Stokes radii of the standard proteins used to calibrate the column are reported: conalbumin (40.4 Å), ovalbumin (30.5 Å), carbonic anhydrase (23.6 Å) [S3], ribonuclease ...

Series [2] in a line: Secondary structure content from far-UV CD. Format: physicochemical, human. Particulars: K2D software; 20 µM protein, 7 mM Tris pH 7.4, 170 mM KCl, 5 mM MgCl2; 25 °C. As to the method:
Far-UV CD spectra for all protein variants were recorded using a Jasco J-810 spectropolarimeter equipped with a Peltier holder, using a 0.1 cm path length cuvette. Typically, samples contained 20 µM protein in 7 mM Tris buffer at pH 7.4, containing 170 mM KCl and 5 mM MgCl2. The far-UV CD spectra of all the variants in their native, thermally denatured and refolded states were recorded from 198 to 250 nm, and the spectrum of the buffer was systematically subtracted from the spectra of all protein samples. The secondary structure content was estimated from the far-UV CD spectrum for each protein variant using K2D software.

The nature of series [3]: nESI-MS relative populations of oligomeric forms. The format is physicochemical, human. Particulars: 6-15 µM protein, 150 mM ammonium acetate, pH 7.4, estimated error 5% (SD of 3-4 independent experiments). As to the method: Prior to MS analysis, samples were buffer exchanged into 150 mM ammonium acetate, pH 7.4, using Micro Bio-spin 6 columns (Bio-Rad, Digilab Division, Cambridge, MA, USA). For all the experiments protein concentrations ranging from 6 to 18 µM were used. In the case of the substrate binding experiments, proteins were analyzed in the presence of a 1: 1 molar ratio of the NR peptide; this substrate concentration, lower than in the SEC experiments, was chosen to ensure adequate resolution of the various charge state series, which is critical for unambiguous assignment of substrate-bound states. Due to suppression effects during nESI ionization, a relatively limited set of molar ratios could be investigated by in this way.
nESI-MS spectra were obtained according to a previously published protocol on an orthogonal time-of-flight mass spectrometer with a Z-spray source (LCT, Waters, Manchester, UK) in positive ion mode using the following parameters: capillary voltage, 1500 V; sample cone voltage, 120 V (unless otherwise specified); extraction cone voltage, 1V; and ion transfer stage pressure, 8.8 mbar. Spectra were calibrated externally using a 33 mg/ml solution of cesium iodide. Data were acquired and processed with MassLynx software (Waters, Manchester, UK), and are shown with minimal smoothing and without background subtraction. The relative abundances of the different oligomeric states were estimated from the intensities of the most abundant charge states for each construct and are expressed as a percentage of the total intensity.

Series [4] is described as follows: Thermal denaturation monitored by far-UV CD. Format: physicochemical, human. As to the method: Protein structural stability was analyzed by monitoring the CD signal at 222 nm upon thermal denaturation. Thermal runs were performed from 5 to 90 °C at a rate of 1 °C. min^-1. Data points were acquired every 0.1 °C with a response time of 2 s and a bandwidth of […]. After thermal denaturation, each protein sample was cooled to the starting temperature, and a second denaturation curve recorded in order to analyse the degree of reversibility of the denaturation process. Analysis of the thermal unfolding curves was performed assuming a three-state unfolding model.

Series [5] can be described thus: Analytical SEC relative populations of oligomeric forms. The format is physicochemical, human. Particulars: Superdex 75, 4 °C, 50 mM Tris pH 7.4, 150 mM KCl. On the procedure: (§1) Analytical SEC was performed at 4 °C using a Superdex 75 10/300 GL column (GE Healthcare LifeSciences, Little Chalfont, U.K.), which had previously been calibrated using a mixture of standard proteins (Gel Filtration LMW Calibration Kit; GE Healthcare LifeSciences, Little Chalfont, U.K.). Typically, samples of the various constructs contained 70 µM of protein in 50 mM Tris buffer at pH 7.4, with 150 mM KCl, 5 mM MgCl2 and were incubated for 15 min (unless otherwise specified) at room temperature before being loaded onto the column for analysis. To evaluate the reversibility of the oligomerization process, the different elution peaks obtained for each protein variant were subsequently analyzed after concentrating the different fractions using AmiconUltra-0.5, Ultracel-3 Membrane, 3 kDa (Millipore, Bedford, MA, USA). A similar analysis was also performed at 6 µM concentration for all the protein variants to allow for a direct comparison between the results obtained by SEC and MS experiments.
The influence of substrate binding on the oligomerization properties of all the variants was examined by using the well-characterized Hsp70 substrate, the NR peptide (NRLLLTG, Genemed Synthesis Inc., San Antonio, TX, USA). A 14-fold excess of the peptide was added in each case to a fresh protein sample, incubated for 1 h at room temperature, unless otherwise specified, and then loaded onto the Superdex 75 10/300 GL column for analysis. The relative quantities of the different protein species were estimated by analysing the chromatographic profile using a Gaussian function for each elution peak (OriginPro 8, Originlab, Northampton, MA, USA) and measuring the relative area under each peak.

A short description of series [6]: Tryptophan (W580) fluorescence emission. Format: physicochemical, human. Particulars: W580, excitation 295 nm. On the procedure: Steady-state tryptophan fluorescence emission spectra of native, thermally denatured and refolded proteins were recorded from 300 to 400 nm, selectively exciting the only tryptophan residue in the SBD (W580) at 295 nm, using a Cary Eclipse spectrofluorimeter (Varian, Palo Alto, CA, USA). Excitation and emission band-passes were set to 5 nm each.

The nature of series [7]: Analytical SEC, Stokes radius and oligomeric state. Format: physicochemical, human. On the procedure:
as §1

The mark [8] stands for this setting: 70 µM protein, 5 mM MgCl2, 15 min at room temperature, estimated error 3.5% (SD of 3-4 independent experiments).
[9] abbreviates: 6-15 µM protein, 5 mM MgCl2, estimated error 3.5% (SD of 3-4 independent experiments).

B1: ovalbumin: SEC standard protein (protein, UniProt P01012 2-386, looked up)
Ovalbumin: GSIGAASMEFCFDVFKELKVHHANENIFYCPIAIMSALAMVYLGAKDSTRTQINKVVRFDKLPGFGDSIEAQCGTSVNVHSSLRDILNQITKPNDVYSFSLASRLYAEERYPILPEYLQCVKELYRGGLEPINFQTAADQARELINSWVESQTNGIIRNVLQPSSVDSQTAMVLVNAIVFKGLWEKAFKDEDTQAMPFRVTEQESKPVQMMYQIGLFRVASMASEKMKILELPFASGTMSMLVLLPDEVSGLEQLESIINFEKLTEWTSSNVMEERKIKVYLPRMKMEEKYNLTSVLMAMGITDVFSSSANLSGISSAESLKISQAVHAAHAEINEAGREVVGSAEAGVDAASVSEEFRADHPFLFCIKHIATNAVLFFGRCVSP
On to B1, for which the “Stokes radius of SEC standard protein” value in series [1] is reported as 30.5 Å.

B2: ribonuclease A: SEC standard protein (protein, UniProt P61823 27-150, looked up)
Ribonuclease pancreatic: KETAAAKFERQHMDSSTSAASSSNYCNQMMKSRNLTKDRCKPVNTFVHESLADVQAVCSQKNVACKNGQTNCYQSYSTMSITDCRETGSSKYPNCAYKTTQANKHIIVACEGNPYVPVHFDASV
On to B2, for which the “Stokes radius of SEC standard protein” value in series [1] was 16.4 Å.

B3: C-term: truncated human Hsp70 (540-641), C-terminal segment of helix B, helices C-E and disordered C-terminal region (protein, UniProt P0DMV8 540-641, looked up, fragment)
chain: NALESYAFNMKSAVEDEGLKGKISEADKKKVLDKCQEVISWLDANTLAEKDEFEHKRKELEQVCNPIISGLYQGAGGPGPGGFGAQGPKGGSGSGPTIEEVD
In the case of B3, in series [2], the “Random-coil content estimated from far-UV CD” value is given as 33%, the “α-helix content estimated from far-UV CD” value is 60% and the “β-sheet content estimated from far-UV CD” value is on record as 7%. Also, in series [3], the Dimer population is reported as 0%, the Total oligomer population is 0% and the Trimer population is 0%. Besides, in series [4] (CD 222 nm, 20 µM protein, 7 mM Tris pH 7.4, 170 mM KCl, 5 mM MgCl2, three-state fit (C-term two-state), SE of fit), the “∆Hm, 1st transition” value was 51.5 ± 1.5 kcal/mol. The “Tm, 1st transition” value in series [4] (CD 222 nm, 5 to 90 °C at 1 °C/min, 20 µM protein, 7 mM Tris pH 7.4, 170 mM KCl, 5 mM MgCl2, three-state fit (C-term two-state), SE of fit) was 49.9 ± 0.2 °C. The “Reversibility of thermal unfolding” value in series [4] (far-UV CD, second denaturation curve after cooling) is listed as “reversibly”. Besides, in series [5] (setting [8]), the Dimer population is recorded as 0%, the Monomer population was 100% and the Total oligomer population is 0%. In addition, in series [5] (setting [9]), the Dimer population is recorded as 0%, the Monomer population is recorded as 100% and the Total oligomer population is given as 0%. In addition, in series [6], the “Red-shift of fluorescence emission maximum, native to refolded” value is listed as “not observed”. For the same molecule, the Oligomeric state result in series [7] (analytical SEC, 1 to 125 µM, single elution peak at 11.8 ml) was “monomeric”. Besides, in series [7] (analytical SEC, from retention volume), the Stokes radius is on record as 21.4 Å. In addition, the “Ability to dimerize in isolation” value in series [7] (under experimental conditions used) is recorded as “unable to dimerize in isolation”.

B4: conalbumin: SEC standard protein (protein, UniProt P02789 20-705, looked up)
Ovotransferrin: APPKSVIRWCTISSPEEKKCNNLRDLTQQERISLTCVQKATYLDCIKAIANNEADAISLDGGQAFEAGLAPYKLKPIAAEVYEHTEGSTTSYYAVAVVKKGTEFTVNDLQGKTSCHTGLGRSAGWNIPIGTLLHRGAIEWEGIESGSVEQAVAKFFSASCVPGATIEQKLCRQCKGDPKTKCARNAPYSGYSGAFHCLKDGKGDVAFVKHTTVNENAPDQKDEYELLCLDGSRQPVDNYKTCNWARVAAHAVVARDDNKVEDIWSFLSKAQSDFGVDTKSDFHLFGPPGKKDPVLKDLLFKDSAIMLKRVPSLMDSQLYLGFEYYSAIQSMRKDQLTPSPRENRIQWCAVGKDEKSKCDRWSVVSNGDVECTVVDETKDCIIKIMKGEADAVALDGGLVYTAGVCGLVPVMAERYDDESQCSKTDERPASYFAVAVARKDSNVNWNNLKGKKSCHTAVGRTAGWVIPMGLIHNRTGTCNFDEYFSEGCAPGSPPNSRLCQLCQGSGGIPPEKCVASSHEKYFGYTGALRCLVEKGDVAFIQHSTVEENTGGKNKADWAKNLQMDDFELLCTDGRRANVMDYRECNLAEVPTHAVVVRPEKANKIRDLLERQEKRFGVNGSEKSKFMMFESQNKDLLFKDLTKCLFKVREGTTYKEFLGDKFYTVISSLKTCNPSDILQMCSFLEGK
For the molecule B4, the “Stokes radius of SEC standard protein” value in series [1] was 40.4 Å.
